Consider 15 molecules from US20160159919A1 (Chugai, published 2016).

B1: HY-G1d/L32-k (antibody, human IgG1, kappa, V domains shown)
VH: QDQLVQSGAEVKKPGASVKVSCKASGFNIKDTYIQWVRQAPGQGLEWMGRIDPLNGNTKYVPKFQGRVTITADTSTNTAYMELSSLRSEDTAVYYCVRSGTLFDFWGQGTLVTVSS
VL: DIQMTQSPSSLSASVGDRVTITCKASQDIHKYIAWYQQKPGQAPRLLIQYTSTLQPGVPSRFSGSGSGTDYTFTISSLQPEDIATYYCLQYEQLRTFGGGTKVEIKR
notes: also called HY-G1/L32-k
B2: H71-G1d/LB-k (antibody, human IgG1, kappa, V domains shown)
VH: QDQLVQSGAEVKKPGASVKVSCKASGFNIKATYIQWVRQAPGQGLEWMGRIDPLNGNTKYVPKFQGRVTITADTSTNTAYMELSSLRSEDTAVYYCVRSGTLFDFWGQGTLVTVSS
VL: DIQMTQSPSSLSASVGDRVTITCKASQDIHKYIAWYQQKPGQAPRLLIQYTSTLQPGVPSRFSGSGSGTDYTFTISSLQPEDIATYYCLQYDNLRTFGGGTKVEIKR
notes: also called H71-G1/LB-k
B3: HY-G1d/L12-k (antibody, human IgG1, kappa, V domains shown)
VH: QDQLVQSGAEVKKPGASVKVSCKASGFNIKDTYIQWVRQAPGQGLEWMGRIDPLNGNTKYVPKFQGRVTITADTSTNTAYMELSSLRSEDTAVYYCVRSGTLFDFWGQGTLVTVSS
VL: DIQMTQSPSSLSASVGDRVTITCKASQDIHKYIAWYQQKPGQAPRLLIQYTSTLEPGVPSRFSGSGSGTDYTFTISSLQPEDIATYYCLQYDNLRTFGGGTKVEIKR
B4: H87-G1d/L37-k (antibody, human IgG1, kappa, V domains shown)
VH: QDQLVQSGAEVKKPGASVKVSCKASGFNIKDTYIQWVRQAPGQGLEWMGRIDPLTGQTKYQEKFEGRVTITADTSTNTAYMELSSLRSEDTAVYYCVRSGTSFDFWGQGTLVTVSS
VL: DIQMTQSPSSLSASVGDRVTITCQASQDIHKYIAWYQQKPGQAPRLLIQYTSTLQPGVPSRFSGSGSGTDYTLTISSLQPEDFATYYCLQYDNLRTFGGGTKVEIKR
B5: HY-G1d/L30-k (antibody, human IgG1, kappa, V domains shown)
VH: QDQLVQSGAEVKKPGASVKVSCKASGFNIKDTYIQWVRQAPGQGLEWMGRIDPLNGNTKYVPKFQGRVTITADTSTNTAYMELSSLRSEDTAVYYCVRSGTLFDFWGQGTLVTVSS
VL: DIQMTQSPSSLSASVGDRVTITCKASQDIHKYIAWYQQKPGQAPRLLIQYTSTLQPGVPSRFSGSGSGTDYTFTISSLQPEDIATYYCLQYENLRTFGGGTKVEIKR
notes: the text names only HY-G1d/L32-k as obtained; also called HY-G1/L30-k
B6: HY-G1d/L2-k (antibody, human IgG1, kappa, V domains shown)
VH: QDQLVQSGAEVKKPGASVKVSCKASGFNIKDTYIQWVRQAPGQGLEWMGRIDPLNGNTKYVPKFQGRVTITADTSTNTAYMELSSLRSEDTAVYYCVRSGTLFDFWGQGTLVTVSS
VL: DIQMTQSPSSLSASVGDRVTITCSASQDIHKYIAWYQQKPGQAPRLLIQYTSTLQPGVPSRFSGSGSGTDYTFTISSLQPEDIATYYCLQYDNLRTFGGGTKVEIKR
B7: H67-G1d/LB-k (antibody, human IgG1, kappa, V domains shown)
VH: QDQLVQSGAEVKKPGASVKVSCKASGFNIKDTYIQWVRQAPGQGLEWMGRIDPLLGNTKYVPKFQGRVTITADTSTNTAYMELSSLRSEDTAVYYCVRSGTLFDFWGQGTLVTVSS
VL: DIQMTQSPSSLSASVGDRVTITCKASQDIHKYIAWYQQKPGQAPRLLIQYTSTLQPGVPSRFSGSGSGTDYTFTISSLQPEDIATYYCLQYDNLRTFGGGTKVEIKR
notes: also called H67-G1/LB-k
B8: H87-G1d/L21-k (antibody, human IgG1, kappa, V domains shown)
VH: QDQLVQSGAEVKKPGASVKVSCKASGFNIKDTYIQWVRQAPGQGLEWMGRIDPLTGQTKYQEKFEGRVTITADTSTNTAYMELSSLRSEDTAVYYCVRSGTSFDFWGQGTLVTVSS
VL: DIQMTQSPSSLSASVGDRVTITCQASQDIHKYIAWYQQKPGQAPRLLIQYTSTLQPGVPSRFSGSGSGTDYTFTISSLQPEDIATYYCLQYDNLRTFGGGTKVEIER
B9: H111-G1d/L47-k (antibody, human IgG1, kappa, V domains shown)
VH: QDQLVQSGAEVKKPGASVKVSCKASGFNIKDTYIQWVRQAPGQGLEWMGRIDPLRGNTKYREKFEGRVTITADTSTNTAYMELSSLRSEDTAVYYCVRSGTLFDFWGQGTLVTVSS
VL: DIQMTQSPSSLSASVGDRVTITCKASQDIHKYIAWYQQKPGQAPRLLIQYTSTLQPGVPSRFSGSGSGTDYTFTISSLQPEDIATYYCLQYDRLRTFGGGTKVEIKR
B10: H111-G1d/LB-k (antibody, human IgG1, kappa, V domains shown)
VH: QDQLVQSGAEVKKPGASVKVSCKASGFNIKDTYIQWVRQAPGQGLEWMGRIDPLRGNTKYREKFEGRVTITADTSTNTAYMELSSLRSEDTAVYYCVRSGTLFDFWGQGTLVTVSS
VL: DIQMTQSPSSLSASVGDRVTITCKASQDIHKYIAWYQQKPGQAPRLLIQYTSTLQPGVPSRFSGSGSGTDYTFTISSLQPEDIATYYCLQYDNLRTFGGGTKVEIKR
B11: H118-G1d/LB-k (antibody, human IgG1, kappa, V domains shown)
VH: QDQLVQSGAEVKKPGASVKVSCKASGFNIKDTYIQWVRQAPGQGLEWMGRIDPLRGNRKYREKFEGRVTITADTSTNTAYMELSSLRSEDTAVYYCVRSGTLFDFWGQGTLVTVSS
VL: DIQMTQSPSSLSASVGDRVTITCKASQDIHKYIAWYQQKPGQAPRLLIQYTSTLQPGVPSRFSGSGSGTDYTFTISSLQPEDIATYYCLQYDNLRTFGGGTKVEIKR
B12: H111-G1d/L48-k (antibody, human IgG1, kappa, V domains shown)
VH: QDQLVQSGAEVKKPGASVKVSCKASGFNIKDTYIQWVRQAPGQGLEWMGRIDPLRGNTKYREKFEGRVTITADTSTNTAYMELSSLRSEDTAVYYCVRSGTLFDFWGQGTLVTVSS
VL: DIQMTQSPSSLSASVGDRVTITCKASQDIHKYIAWYQQKPGQAPRLLIQYTSTLQPGVPSRFSGSGSGTDYTFTISSLQPEDIATYYCLQYDNRRTFGGGTKVEIKR
B13: H112-G1d/LB-k (antibody, human IgG1, kappa, V domains shown)
VH: QDQLVQSGAEVKKPGASVKVSCKASGFNIKDTYIQWVRQAPGQGLEWMGRRDPLRGNTKYREKFEGRVTITADTSTNTAYMELSSLRSEDTAVYYCVRSGTLFDFWGQGTLVTVSS
VL: DIQMTQSPSSLSASVGDRVTITCKASQDIHKYIAWYQQKPGQAPRLLIQYTSTLQPGVPSRFSGSGSGTDYTFTISSLQPEDIATYYCLQYDNLRTFGGGTKVEIKR
B14: H117-G1d/LB-k (antibody, human IgG1, kappa, V domains shown)
VH: QDQLVQSGAEVKKPGASVKVSCKASGFNIKDTYIQWVRQAPGQGLEWMGRIDPLRGRTKYREKFEGRVTITADTSTNTAYMELSSLRSEDTAVYYCVRSGTLFDFWGQGTLVTVSS
VL: DIQMTQSPSSLSASVGDRVTITCKASQDIHKYIAWYQQKPGQAPRLLIQYTSTLQPGVPSRFSGSGSGTDYTFTISSLQPEDIATYYCLQYDNLRTFGGGTKVEIKR
B15: H116-G1d/LB-k (antibody, human IgG1, kappa, V domains shown)
VH: QDQLVQSGAEVKKPGASVKVSCKASGFNIKDTYIQWVRQAPGQGLEWMGRIDPLRRNTKYREKFEGRVTITADTSTNTAYMELSSLRSEDTAVYYCVRSGTLFDFWGQGTLVTVSS
VL: DIQMTQSPSSLSASVGDRVTITCKASQDIHKYIAWYQQKPGQAPRLLIQYTSTLQPGVPSRFSGSGSGTDYTFTISSLQPEDIATYYCLQYDNLRTFGGGTKVEIKR

In one test the target is T1, soluble human EREG fragment having a mature EGF domain structure (R&D Systems cat. no. 1195-EP/CF) (human, UniProt O14944 63-108).
T1 construct: bought; coated on ELISA plates; also called human epiregulin; recombinant human Epiregulin
T1 sequence (O14944 63-108 limits assumed): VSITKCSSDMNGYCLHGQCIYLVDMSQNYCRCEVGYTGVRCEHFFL
In words: competitive ELISA on coated soluble human EREG fragment. The procedure:
The soluble human EREG fragment having a mature EGF domain structure (the polypeptide of SEQ ID NO: 34 which corresponds to ⁶³Val to ¹⁰⁸Leu) was purchased from R&D Systems (cat. no. 1195-EP/CF). The soluble human EREG fragment was used to coat nunc immunoplates, and after blocking with a BSA-containing solution, the competitive binding reactivity between mouse hybridoma-derived EP27 and the purified humanized anti-EREG antibody was analyzed. Mouse hybridoma-derived EP27 and a purified humanized anti-EREG antibody were added to the plates, and after two hours of incubation, the plates were washed; and an alkaline phosphatase-labeled anti-human IgG antibody (Zymed) was added to each well of the plates and then allowed to react. Each well was washed, and then the amount of bound antibody (A405/655 detection value) was determined by addition of a test reagent, Sigma p-Nitrophenyl phosphate Tablets.
On to B1, for which the binding result was “binds”. Same read-out and setting: to B2 belongs “binds”. On the same count and under the same terms, to B3 belongs “binds”; to B4, “binds”; to B5, “binds”. Still for that read-out and setting: to B6 belongs “binds”; to B7, “binds”.

On to B8, for which the binding result is “binds”.

The target of the next test is T2, cynomolgus EREG (Biacore analyte) (cynomolgus monkey, UniProt O14944 63-108 (human entry), limits assumed).
T2 construct: also called cynomolgus monkey EREG; cEREG
T2 sequence (O14944 other isoform, or with tags, fused parts or gaps limits assumed): as the sequence (O14944 63-108 limits assumed) above, with S7N, F45Y counted along it
As to the kind of experiment: SPR (Biacore T100), antibody captured on Protein A, EREG as analyte; KD for monkey EREG over KD for human EREG. On the procedure: The affinity and association rate constant of an anti-EREG antibody for an antigen were measured by the single-cycle kinetics method of surface plasmon resonance assay using Biacore™-T100 (GE Healthcare Japan). HBS-EP+ (GE Healthcare Japan) was used for the running buffer, and an amine coupling kit (GE Healthcare Japan) was used to covalently bond Protein A to the CM5 chip (carboxymethyl dextran-coated chip). Each anti-EREG antibody was prepared so that approximately 350 RU will be captured by Protein A. Human EREG or cynomolgus EREG used as the analyte was prepared at 0, 0.7, 1.4, 2.8, 5.6, and 11.2 nM using HBS-EP+. Measurement was carried out by first allowing Protein A to capture the antibody solution, and then at a flow rate of 30 μL/min, successively injecting each of the 0, 0.7, 1.4, 2.8, 5.6, and 11.2 nM human EREG or cynomolgus EREG solutions for three minutes to allow reaction to take place. Then, the solution was switched to HBS-EP+, and the dissociation phase was measured for 15 minutes. After completion of the dissociation phase measurement, the sensor chip was washed with 25 mM NaOH and regenerated. The measurement at zero concentration was similarly carried out by allowing Protein A to capture the antibody solution, and performing three-minute HBS-EP+ injections successively for five times to allow reaction to take place, and then switching to HBS-EP+ to measure the dissociation phase for 15 minutes. After completion of the dissociation phase measurement, the sensor chip was washed with 25 mM NaOH and regenerated. A data analysis software exclusively for Biacore, Biacore T100 Evaluation Software Version 2.0.1, was used to perform kinetic analyses to calculate the association rate constant (kₐ), dissociation rate constant (kd), and the rate constant ratio from the obtained sensorgrams. To correct for the day-to-day differences in the measurement values, FIGS. 1 to 4 and Tables 16 and 19 show ratios based on taking the value of the control sample (cH-G1/cL-k) measured on the same day as 1.
In the case of B9, the “cEREG KD (nM)/hEREG KD (nM)” value was found to be 12.6 ratio. With B10, the “cEREG KD (nM)/hEREG KD (nM)” value was 9 ratio. The same measure, in the same setting: as for B11, the figure is 7.5 ratio. Take B12: the “cEREG KD (nM)/hEREG KD (nM)” value was 8.4 ratio. On the same count and under the same terms, to B13 belongs 16 ratio; to B14, 7.9 ratio; to B15, 6.1 ratio.
